Assay: yeast display, Sf9 membrane polyspecificity reagent, FACS + sequencing; frameworks hold sequencing errors
In short: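 Nanobodies from a synthetic yeast display library (Saccharomyces cerevisiae BJ5465), induced 36–48 hours with galactose, were stained 1 hour at 4 °C with 10% biotinylated, detergent-solubilized Sf9 membrane reagent, enriched on streptavidin microbeads, then FACS-sorted. Anti-HA (expression) and streptavidin (reagent binding) fluorescence set low and high (top ~1%) gates. Polyreactivity labels come from the gate of origin. Genes were colony-PCR amplified, MiSeq 2 × 250 sequenced and filtered by CDR length.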
For “QVQLVESGGGLVQAGGSLRLSCAASGFTFWRNTMGWYRQAPGKERELVAGISGSGGSTYYADSVKGRFTISRDNAKNTVYLQMNSLKPEDTAVYYCAVRGGYTWPTYNYWGQGTQVTVSS”, the “polyreactivity (PSR sort gate)” value was “high polyreactivity”.
In the case of “QVQLVESGGGLVQAGGSLRLSCAASGFTFWRNVMGWYRQAPGKERELVAVISRGGSTNYADSVKGRFTISRDNAKNTVYLKMNSLIPEDTAVYYFAKYARGPSKVDYWGQGTQVTVSS”, the “polyreactivity (PSR sort gate)” value is reported as “high polyreactivity”.
With “QVQLVESGGGLVQAGGSLRLSCAASGFTFWSYAMGWYRQAPGKERELVAAISSSGDSTYYADSVKGRFTISRDNAKNTVYLQMNSLKPEDTAVYYCAAEYQYLSVEVTDIWYLTKYDYWGQGTQVTVSS” the “polyreactivity (PSR sort gate)” value was “low polyreactivity”.
With “QVQLVESGGGLVQAGGSLRLSCAASGFTFWVYAMGWYRQAPGKEREFVASISWTGDTTYYADSVKGRFTISRDNAKNTVYLQMNSLKPEDTAVYYCAGDTILGYDYWGQGTQVTVSS” the “polyreactivity (PSR sort gate)” value was “low polyreactivity”.
For “QVQLVESGGGLVQAGGSLRLSCAASGFTFWVYAMGWYRQAPGKERELVAAISARGGSTYYADSVKVRFTISRDNAKNTVYLQMNRLKPEDTAVYYCAAEPSGKRSKFYYWGQGTQVTVSS”, the “polyreactivity (PSR sort gate)” value was “high polyreactivity”.
For “QVQLVESGGGLVQAGGSLRLSCAASGFTFWYYAMGWYRQAPGKERELVAAITYTGDRTYYADSVKGRFTISRDNAKNTVYLQMNSLKREDTAVYYCDVYLGIRSGTANDYWGQGTQVTVSS”, the “polyreactivity (PSR sort gate)” value was “high polyreactivity”.
For “QVQLVESGGGLVQAGGSLRLSCAASGFTFYANAMGWYRQAPGKERELVAAITQGGDSTYFADSVKGRFTISRDNAKKSVYLQLNSLKREDTAVYYCNTDLLCEYDYWGQGTQVTVSS”, the “polyreactivity (PSR sort gate)” value was “low polyreactivity”.
In the case of “QVQLVESGGGLVQAGGSLRLSCAASGFTFYAYAMGWYRQAPGKERELVAAISSRGGRTYYADSVKGRFTISRDNAKNTVYLQMNSLKPEDTAVYYCIVPYYSFRELSSYYWGQGTQVTVSS”, the “polyreactivity (PSR sort gate)” value is reported as “high polyreactivity”.
For “QVQLVESGGGLVQAGGSLRLSCAASGFTFYDNAMGWYRQAPGKERELVAAISWSGGSTYADSVKGRFTISRDNAKNTVYVQMNSLKPEDTAVYYCNADAWLASGYRYDYWGQGTQVTVSS”, the “polyreactivity (PSR sort gate)” value was “low polyreactivity”.
In the case of “QVQLVESGGGLVQAGGSLRLSCAASGFTFYDYAMGLYRQAPGKERELVAGISRDGGTTYYSDSVKGRFTISRDNAKNTVYLQMNSLKPEDTAVYYCAVDFLDWYQDYYITYDYWGQGSQVTVSS”, the “polyreactivity (PSR sort gate)” value is reported as “low polyreactivity”.
For “QVQLVESGGGLVQAGGSLRLSCAASGFTFYDYAMVWYRQAPGKERELVAGITSTGRTYYADSVKGRFTISRDNAKNTVYLQMNSLKPEDTAVYYCNARTLPNYYRRYDYWGQGTEVTVSS”, the “polyreactivity (PSR sort gate)” value was “high polyreactivity”.
For “QVQLVESGGGLVQAGGSLRLSCAASGFTFYGYAMGWYRQAPGKEREFVAAISSRGGRTYYADSVKGRFTISRDNAKNTVYLQMNSLKPEDTAVYYCARRRATGRFSLDYWGQGTQVTVSS”, the “polyreactivity (PSR sort gate)” value was “high polyreactivity”.
For “QVQLVESGGGLVQAGGSLRLSCAASGFTFYGYAMGWYRQAPGKERELVAAINSGAITNYADSVKGRFTISRDNAKNTVYLQMNSLKPEDTAVYYCAASYRRLTGVGADEYWGQGTQVTVSS”, the “polyreactivity (PSR sort gate)” value was “high polyreactivity”.
With “QVQLVESGGGLVQAGGSLRLSCAASGFTFYGYAMGWYRQAPGKERELVAAISSSGTSTYYADSVKGRFTISRDNAKNTVYLQMNSLKPEDTAVYYCAALVRGAYGYGYWGQGTQVTVSS” the “polyreactivity (PSR sort gate)” value was “high polyreactivity”.
In the case of “QVQLVESGGGLVQAGGSLRLSCAASGFTFYGYAMGWYRQAPGKERELVASISWSGGTTYYADSVKGRFTISRDNAKNTVYLQMNSLKPEDTAVYYCNAVRYRYGVFPYYYWGQGTQVTVSS”, the “polyreactivity (PSR sort gate)” value is reported as “high polyreactivity”.
In the case of “QVQLVESGGGLVQAGGSLRLSCAASGFTFYGYVMGWYRQAPGKERDLVAVISRSGDRTYYADSVKGRFTISRDNAKNTVYFQMNSLKPEDTAVYYCAARVYLLGWWTGNGYWGQGTQVTVSS”, the “polyreactivity (PSR sort gate)” value is reported as “high polyreactivity”.
With “QVQLVESGGGLVQAGGSLRLSCAASGFTFYHYAMGWYRQAPGKERELVATISKRGGSTYYADSVKGRFTISRDNAKNTVYLQMNSLKPEDTAVYYCAAKIYWSSLKMDYWGQGTQVTVSS” the “polyreactivity (PSR sort gate)” value was “high polyreactivity”.
With “QVQLVESGGGLVQAGGSLRLSCAASGFTFYINALGWYRLAHGKERELVAAITWRSVRTYYADSVKGRFTISRDNAKNTVYLQMNSRKPEDTEVYYCAAASAYRHGEYDYWGQGTQLTVSS” the “polyreactivity (PSR sort gate)” value was “low polyreactivity”.
With “QVQLVESGGGLVQAGGSLRLSCAASGFTFYIYAMGWYRQAPGKERELVAAISSGGGRTYYADSVKGRFTISRDNAKNTVYLQMNSLKPEDTAVYYCAARGRAFSYNNYGSDYWGQGTQVTVSS” the “polyreactivity (PSR sort gate)” value was “high polyreactivity”.
For “QVQLVESGGGLVQAGGSLRLSCAASGFTFYIYVMGWYRQARGKERELVAAITWSGGRTYYADSVKGRFTISRDYAKNTVYLQMNSLKPEDTAVYYCAASYPGLSYHKYEYWGQGTQVTVSS”, the “polyreactivity (PSR sort gate)” value was “high polyreactivity”.
With “QVQLVESGGGLVQAGGSLRLSCAASGFTFYKNTMGWYRQAHGTERELVAAISSSGSSTYYADSVKGRFTISRDNAKNTVYLQMNSLKPEDTAVYYCAAGRFAYHDDYWGQGTQVTVSS” the “polyreactivity (PSR sort gate)” value was “high polyreactivity”.
In the case of “QVQLVESGGGLVQAGGSLRLSCAASGFTFYKNTMGWYRQAPGKERELVAAISSSGSSTYYADSVKGRFTISRDKAKNTVYLQMNSLKPEDTAVYYCAAGRFAYHDDYWGQGTQVTVSS”, the “polyreactivity (PSR sort gate)” value is reported as “high polyreactivity”.
With “QVQLVESGGGLVQAGGSLRLSCAASGFTFYKYVMGWYRQAPGKERELVAAITTSGGSTYYADSVKGRFTISRDNAKNTVYLQMNSLKPEDTAVYYCNALARWWAYYDYGYWGQGTQVTVSS” the “polyreactivity (PSR sort gate)” value was “low polyreactivity”.
With “QVQLVESGGGLVQAGGSLRLSCAASGFTFYLNVMGWYRQAPGKERELVARISRSGGTTYYADSVKGRFTISRDNAKNTVYLQMNSLKPEDTAVYYCAARRYGVPPTYDYWGQGTQVTVSS” the “polyreactivity (PSR sort gate)” value was “high polyreactivity”.
With “QVQLVESGGGLVQAGGSLRLSCAASGFTFYLYAMGWYRQAPGKERELVAAITWSGGRTYYADSVKGRFTISRDNAKNTVYLQMNSLKPEDTAVYYCAAVVRKQLSAPSDYWGQGTQVTVSS” the “polyreactivity (PSR sort gate)” value was “high polyreactivity”.
In the case of “QVQLVESGGGLVQAGGSLRLSCAASGFTFYNNAMGWYRQAPGKERELVAVITSNGGRTYYADSVKGRFTISRDNAKITVYLQMNSLKPEDTAVYYCAADYWGLGTQVTVSS”, the “polyreactivity (PSR sort gate)” value is reported as “low polyreactivity”.
In the case of “QVQLVESGGGLVQAGGSLRLSCAASGFTFYNYAMGWYRQAPGKERELVAAISRSGRTYYADSVKGRFTISRDNAKNTVYLQMNSLKPEDTAVYYCAAGHGGDPGSGYWGQGTQVTVSS”, the “polyreactivity (PSR sort gate)” value is reported as “high polyreactivity”.
With “QVQLVESGGGLVQAGGSLRLSCAASGFTFYNYAMGWYRQAPGKERELVAAITSSGGRTYYADSVKGRFTISRDNAKNTVYLQMNSLKPEDTAVYYCAATGFYLRGEYYYCGQGTQVTVSS” the “polyreactivity (PSR sort gate)” value was “low polyreactivity”.
With “QVQLVESGGGLVQAGGSLRLSCAASGFTFYPYALGRYRQAPRKEREFVAAISNGDSTHYADSVKGRFTISRDNAKNTVYLQMNSLKPEDTAVYYCNAYTRYPFYFVTSKYDYWGQGTQVTVSS” the “polyreactivity (PSR sort gate)” value was “low polyreactivity”.
In the case of “QVQLVESGGGLVQAGGSLRLSCAASGFTFYQYAMGWYRQAPGKEREFVAAISSSGSSTYYADSVKGRFTISRDNAKNTVYLQMNSLKPEDTEVYYCNAYFRNWRYSPGGYWGQGTQVTVSS”, the “polyreactivity (PSR sort gate)” value is reported as “high polyreactivity”.
With “QVQLVESGGGLVQAGGSLRLSCAASGFTFYRNAMGWYRQAPGKERELVAAINYSGGSTYFADSVKGRFTISRDNAKNTVYLQMNSLKPEVTAVYYCAVPYNYYRYHYSGYDYWGQGTQVTVSS” the “polyreactivity (PSR sort gate)” value was “high polyreactivity”.
With “QVQLVESGGGLVQAGGSLRLSCAASGFTFYRNAMGWYRQAPGKERELVAAISWRGSSTYYADSVKGRFTISRDNAKNTVYLQMNSLKPEDTAVYYCATEYPYWYYYRMDYWGQGTQVTVSS” the “polyreactivity (PSR sort gate)” value was “high polyreactivity”.
With “QVQLVESGGGLVQAGGSLRLSCAASGFTFYRNAMGWYRQAPGKERELVASISRSGGSTYYADSVKGRFTNSRDNAKNTVYLQMNSLKPEDTAVYYCAADLWWIYPHKYYYWGQGTQVTVSS” the “polyreactivity (PSR sort gate)” value was “high polyreactivity”.
With “QVQLVESGGGLVQAGGSLRLSCAASGFTFYRYAMGWYRQAPGKEREFVAVINIRGSTTYYADSVKGRFTISRDNAKNTVYLQMNSLKPEDTAVYYCARRYRGPYYSLPRRKEFDYWGQGTQVTVSS” the “polyreactivity (PSR sort gate)” value was “high polyreactivity”.
With “QVQLVESGGGLVQAGGSLRLSCAASGFTFYRYAMGWYRQAPGKERELVAAISSGGRTTYADSVKGRFTISRDNAKNTVYLQMNSLKPEDTAVYYCVFVYVYDYYYWGQGTQVTVSS” the “polyreactivity (PSR sort gate)” value was “high polyreactivity”.
With “QVQLVESGGGLVQAGGSLRLSCAASGFTFYRYAMGWYRQAPGKERELVAAISTSGGSTYYADSVKGRFTISRDNAKNTVYLQMNSLKPEDTAVYYCAAELLVYYWGYYYELLDYWGQGTQVSVSS” the “polyreactivity (PSR sort gate)” value was “high polyreactivity”.
For “QVQLVESGGGLVQAGGSLRLSCAASGFTFYRYAMGWYRQAPGKERELVATISASGGSTYYADSVKGRFTISRDNAKNTVYLQMNSLKPEDTAVYYCAVRYKSWYGFNYWGQGTQVTVSS”, the “polyreactivity (PSR sort gate)” value was “high polyreactivity”.
In the case of “QVQLVESGGGLVQAGGSLRLSCAASGFTFYRYAMGWYRQAPGKERELVAVISSSGGRTYYADSVKGRFTISRDNAKNTVYLQMNSLKPEDTAVYYCAAVGAVRREDYWGQGTQVTVSS”, the “polyreactivity (PSR sort gate)” value is reported as “high polyreactivity”.
In the case of “QVQLVESGGGLVQAGGSLRLSCAASGFTFYRYAMGWYRQAPGKERQLVAAISRRGGSTDYADSVKGRFTISRDNAKNTVYLQMNRLKPEDTAVYYCAASYSRGVGKLGYWGQGTQVTVSS”, the “polyreactivity (PSR sort gate)” value is reported as “high polyreactivity”.
In the case of “QVQLVESGGGLVQAGGSLRLSCAASGFTFYRYTMGWYRQAPGKERELVAAISSGDSTYYADSVKGRFTISRDNAKNTVYLQMNSLKPEDTAVYYCAARQYSRGAIVYYWGQGTQVTVSS”, the “polyreactivity (PSR sort gate)” value is reported as “high polyreactivity”.
In the case of “QVQLVESGGGLVQAGGSLRLSCAASGFTFYRYTMGWYRQAPGKERELVAVISSGGRTNYADSVKGRFTISRDNAKNTVYLQMNSLKPEDTAVYYCATRYPGYRDGYDYWGQGTQVSVSS”, the “polyreactivity (PSR sort gate)” value is reported as “high polyreactivity”.
In the case of “QVQLVESGGGLVQAGGSLRLSCAASGFTFYSNAMGWYRQAPGKERELVAAISGSGGRTYYADSVKGRFTISRDNAKNTVYLQMNSLKPEDTAVYYCAAKFTTGYYYGVPRDYWGQGTQVTVSS”, the “polyreactivity (PSR sort gate)” value is reported as “high polyreactivity”.
With “QVQLVESGGGLVQAGGSLRLSCAASGFTFYSNAMGWYRQAPGKERELVATIRYRGGSTYADSVKGRFTISRDNAKNTVYLQMNSLKPEDTAVYYCAARKYRSFRQRTGDYWGQGTQVTVSS” the “polyreactivity (PSR sort gate)” value was “high polyreactivity”.
